Data taken from patent US20220151976A1 (UNIVERSITY OF TOLEDO, published 2022).

Tests used:
[1] = target: T1, Eukaryotic initiation factor 4A (eIF4A1), endogenous in 231S cells (human, UniProt P60842 2-406); assay: proximity ligation assay in 231S cells, CXCL12 5 min against unstimulated
T1 construct: Endogenous intracellular protein; eIF4A1 antibody (Cohesion CQA1180) used in PLA and IP, eIF4A C32B4 in Western blots
Experimental: 100 nM AMD3465 was added 30 min prior to stimulation. […] Representative images of the PLA experiment are provided. Quantification indicates the average number of interactions/cell across multiple independent fields.

[2] = target: T2, Eukaryotic initiation factor 4B (eIF4B), endogenous in 231S cells (human, UniProt P23588 1-611); assay: reciprocal co-immunoprecipitation (LASP1 IP, eIF4B blot) from 231S lysate, densitometry against 0 min
T2 construct: Endogenous protein in lysate
T2 sequence (P23588 whole entry): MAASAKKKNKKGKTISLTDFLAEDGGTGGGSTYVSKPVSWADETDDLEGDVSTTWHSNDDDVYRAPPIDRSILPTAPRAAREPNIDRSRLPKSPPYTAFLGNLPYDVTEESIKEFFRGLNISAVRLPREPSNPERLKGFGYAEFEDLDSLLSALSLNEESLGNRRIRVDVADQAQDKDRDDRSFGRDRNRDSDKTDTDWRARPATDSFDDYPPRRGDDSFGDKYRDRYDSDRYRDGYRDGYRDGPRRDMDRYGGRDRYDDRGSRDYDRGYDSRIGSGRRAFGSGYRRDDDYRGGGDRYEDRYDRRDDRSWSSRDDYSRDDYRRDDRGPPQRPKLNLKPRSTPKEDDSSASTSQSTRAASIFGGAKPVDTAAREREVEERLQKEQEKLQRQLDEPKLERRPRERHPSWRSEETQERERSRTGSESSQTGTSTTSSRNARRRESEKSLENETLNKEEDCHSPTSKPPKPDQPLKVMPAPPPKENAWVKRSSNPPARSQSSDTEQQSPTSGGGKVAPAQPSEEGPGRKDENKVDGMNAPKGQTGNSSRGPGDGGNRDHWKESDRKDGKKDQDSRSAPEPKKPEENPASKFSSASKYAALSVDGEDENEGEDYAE
Experimental: (§1) 1 mg of total protein lysate was employed in all immunoprecipitation reactions. eIF4B was immunoprecipitated by using 2 μg of eIF4B antibody (Cell Signaling Technology, Danvers, Mass., Cat. No. 13088). Mouse (G3A1) mAb IgG1 Isotype Control (Cell Signaling Technology, Danvers, Mass., Cat. No. 5415) served as the mock control. Next, eIF4A was immunoprecipitated using 2 μg of eIF4A1 antibody (Cohesion Biosciences, London, Purley, Cat. No. CQA1180). His-Tag (D3L10) XP® Rabbit mAb (Cell Signaling Technology, Danvers, Mass., Cat. No. 12698) was employed for the mock condition. […] As in the eIF4B Co-IP, mouse (G3A1) IgG1 isotype mAb was employed as the mock control. Prior to immunoprecipitation, lysates were pre-cleared with 20 μL of PureProteome™ Protein G Magnetic Beads (Millipore, Billerica, Mass., Cat. No. LSKMAGG10) for 2 H at 4° C. Immunoprecipitation reactions were then allowed to proceed with 20 μL of protein G magnetic beads and the appropriate amount of antibody for 2 h at 4° C. Beads were washed thrice with Co-IP buffer. To avoid heavy chain contamination (55 kDa) in the eIF4A Co-IP, antibodies were cross-linked using BS³ (according to Millipore recommendations). Proteins of interest were analyzed by sodium dodecyl sulfate-polyacrylamide gel electrophoresis (SDS-PAGE) and Western blotting.

[3] = target: T1, Eukaryotic initiation factor 4A …; assay: reciprocal co-immunoprecipitation (LASP1 IP, eIF4A blot) from 231S lysate, densitometry against 0 min
Experimental: as §1

[4] = target: eIF4E, endogenous in 231S cells (human) (UniProt P06730); assay: m7GTP pulldown from 231S lysate after CXCL12, LASP1/eIF4E densitometry against 0 min; association may be through the complex
eIF4E, endogenous in 231S cells (human), sequence (P06730 2-217 limits assumed): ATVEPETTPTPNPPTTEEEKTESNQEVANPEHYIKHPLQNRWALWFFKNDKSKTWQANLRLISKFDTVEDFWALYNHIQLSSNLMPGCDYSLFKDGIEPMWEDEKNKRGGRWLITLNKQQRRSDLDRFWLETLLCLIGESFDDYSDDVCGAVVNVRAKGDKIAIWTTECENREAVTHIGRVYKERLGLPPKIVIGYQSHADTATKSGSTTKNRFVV

T1 sequence (P60842 2-406 limits assumed): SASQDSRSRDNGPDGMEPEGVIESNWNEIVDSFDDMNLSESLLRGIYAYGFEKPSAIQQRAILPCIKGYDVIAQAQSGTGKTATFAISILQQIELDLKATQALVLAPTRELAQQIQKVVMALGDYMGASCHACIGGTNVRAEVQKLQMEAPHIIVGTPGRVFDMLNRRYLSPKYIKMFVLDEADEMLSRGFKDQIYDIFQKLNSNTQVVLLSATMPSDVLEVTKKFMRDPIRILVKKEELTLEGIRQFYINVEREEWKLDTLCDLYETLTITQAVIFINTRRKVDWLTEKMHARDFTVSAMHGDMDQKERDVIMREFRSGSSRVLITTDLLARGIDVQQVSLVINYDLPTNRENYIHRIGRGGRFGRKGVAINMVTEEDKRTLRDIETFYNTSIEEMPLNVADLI

B1: LIM and SH3 Protein 1 (LASP1), endogenous in 231S cells (other, human, UniProt Q14847 1-261, looked up)
chain: MNPNCARCGKIVYPTEKVNCLDKFWHKACFHCETCKMTLNMKNYKGYEKKPYCNAHYPKQSFTMVADTPENLRLKQQSELQSQVRYKEEFEKNKGKGFSVVADTPELQRIKKTQDQISNIKYHEEFEKSRMGPSGGEGMEPERRDSQDGSSYRRPLEQQQPHHIPTSAPVYQQPQQQPVAQSYGGYKEPAAPVSIQRSAPGGGGKRYRAVYDYSAADEDEVSFQDGDTIVNVQQIDDGWMYGTVERTGDTGMLPANYVEAI
notes: Endogenous intracellular protein; detected or immunoprecipitated with mouse LASP1 antibody 8C6 (Biolegend 909301); also called endogenous LASP1
- fold stimulation of the interaction [1]: 3 fold
- fold increase in association [2]: 7.5 fold
- fold increase in association [3]: 19.1 fold
- fold increase in association [4]: 2.2 fold
